US20160289685

T1: Recombinant human STAT1α (OriGene Technologies, Inc.), P42224
T1 chain: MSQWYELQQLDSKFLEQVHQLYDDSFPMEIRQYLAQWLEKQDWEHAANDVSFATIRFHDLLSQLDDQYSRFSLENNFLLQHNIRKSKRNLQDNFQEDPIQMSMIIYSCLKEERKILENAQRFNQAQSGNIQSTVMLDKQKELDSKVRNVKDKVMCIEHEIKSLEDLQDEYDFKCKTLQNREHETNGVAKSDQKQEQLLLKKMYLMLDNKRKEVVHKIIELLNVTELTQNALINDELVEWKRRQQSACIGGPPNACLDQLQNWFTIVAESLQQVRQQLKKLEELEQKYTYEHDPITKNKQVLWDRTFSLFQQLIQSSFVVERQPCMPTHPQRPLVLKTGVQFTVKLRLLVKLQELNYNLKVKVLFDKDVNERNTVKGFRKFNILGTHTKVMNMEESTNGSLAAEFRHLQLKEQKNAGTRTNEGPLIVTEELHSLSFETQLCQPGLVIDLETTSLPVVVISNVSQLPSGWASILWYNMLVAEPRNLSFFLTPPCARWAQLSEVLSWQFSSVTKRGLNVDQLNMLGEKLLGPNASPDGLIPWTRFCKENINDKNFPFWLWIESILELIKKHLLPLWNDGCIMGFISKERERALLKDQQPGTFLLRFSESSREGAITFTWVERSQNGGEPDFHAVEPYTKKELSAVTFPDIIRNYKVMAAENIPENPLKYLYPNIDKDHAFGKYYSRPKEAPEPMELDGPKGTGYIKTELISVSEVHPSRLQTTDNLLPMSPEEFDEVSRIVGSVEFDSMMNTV


Legend:
[1] = target: Recombinant human STAT1α (OriGene Technologies, Inc.) (UniProt P42224)
[2] = target: T1, Recombinant human STAT1α (OriGene …)

Molecule | ADP-ribosylation (protein ribosylation assay) [1] | ADP-ribosylation (protein ribosylation assay, Western blot with Streptavidin-HRP) [2] | mono-ADP-ribosylation sites by LC-MS/MS [2]
Recombinant human PARP9 (BPS Bioscience Inc.) | PARP9 did not ADP-ribosylate STAT1α | – | –
Recombinant human PARP14 (BPS Bioscience Inc.) (protein) KEYQELNELQKKLNINISLDHKRPLIKVLGISRDVMQARDEIEAMIKRVRLAKEQESRADCISEFIEWQYNDNNTSHCFNKMTNLKLEDARREKKKTVDVKINHRHYTVNLNTYTATDTKGHSLSVQRLTKSKVDIPAHWSDMKQQNFCVVELLPSDPEYNTVASKFNQTCSHFRIEKIERIQNPDLWNSYQAKKKTMDAKNGQTMNEKQLFHGTDAGSVPHVNRNGFNRSYAGKNAVAYGKGTYFAVNANYSANDTYSRPDANGRKHVYYVRVLTGIYTHGNHSLIVPPSKNPQNPTDLYDTVTDNVHHPSLFVAFYDYQAYPEYLITFRK | – | Recombinant PARP14 protein induced ADP-ribosylation of PARP14 itself, PARP9, and STAT1α | Glu657 and Glu705 of STAT1α were mono-ADP-ribosylated by PARP14
